Test results reported in article doi:10.1101/2022.06.04.494830.

Molecular target: EWS low-complexity domain (EWS^LCD, EWS 1-264) (human) (UniProt Q01844)
Experiment: co-sedimentation

Sequence of EWS low-complexity domain (EWS^LCD, EWS 1-264) (human) (Q01844 1-264, one chain of several): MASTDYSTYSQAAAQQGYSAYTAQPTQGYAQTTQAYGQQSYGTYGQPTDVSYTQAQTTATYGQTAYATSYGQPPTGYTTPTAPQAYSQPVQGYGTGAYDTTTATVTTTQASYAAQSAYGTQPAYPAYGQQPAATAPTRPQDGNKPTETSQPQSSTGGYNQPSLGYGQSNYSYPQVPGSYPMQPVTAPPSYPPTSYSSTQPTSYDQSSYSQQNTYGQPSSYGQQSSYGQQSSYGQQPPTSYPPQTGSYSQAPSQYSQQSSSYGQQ

percent of total FLI1^DBD in the pellet fraction: 55%
Substance: FLI1 DNA-binding domain (FLI1^DBD) (domain or fragment)
